Results taken from patent US20090317890.

Molecular target: T1, human fibrin (clot formed from human fibrinogen, Sigma, with human thrombin), P02671
T1 chain 1: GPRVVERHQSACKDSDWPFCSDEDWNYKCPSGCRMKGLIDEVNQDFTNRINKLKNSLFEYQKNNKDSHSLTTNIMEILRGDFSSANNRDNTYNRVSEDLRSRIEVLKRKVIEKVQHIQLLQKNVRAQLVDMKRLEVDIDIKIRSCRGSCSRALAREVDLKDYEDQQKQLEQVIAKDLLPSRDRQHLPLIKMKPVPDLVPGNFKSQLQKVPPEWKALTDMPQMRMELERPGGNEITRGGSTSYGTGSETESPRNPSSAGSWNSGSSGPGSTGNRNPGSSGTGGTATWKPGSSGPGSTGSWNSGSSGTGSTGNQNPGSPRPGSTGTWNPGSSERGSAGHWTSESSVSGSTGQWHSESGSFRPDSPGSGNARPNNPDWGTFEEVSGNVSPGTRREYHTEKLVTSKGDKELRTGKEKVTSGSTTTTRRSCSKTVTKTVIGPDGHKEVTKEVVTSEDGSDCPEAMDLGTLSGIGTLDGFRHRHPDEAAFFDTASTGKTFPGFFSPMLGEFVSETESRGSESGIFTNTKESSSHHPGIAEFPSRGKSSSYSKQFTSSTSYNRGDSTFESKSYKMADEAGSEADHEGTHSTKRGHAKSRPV
T1 chain 2: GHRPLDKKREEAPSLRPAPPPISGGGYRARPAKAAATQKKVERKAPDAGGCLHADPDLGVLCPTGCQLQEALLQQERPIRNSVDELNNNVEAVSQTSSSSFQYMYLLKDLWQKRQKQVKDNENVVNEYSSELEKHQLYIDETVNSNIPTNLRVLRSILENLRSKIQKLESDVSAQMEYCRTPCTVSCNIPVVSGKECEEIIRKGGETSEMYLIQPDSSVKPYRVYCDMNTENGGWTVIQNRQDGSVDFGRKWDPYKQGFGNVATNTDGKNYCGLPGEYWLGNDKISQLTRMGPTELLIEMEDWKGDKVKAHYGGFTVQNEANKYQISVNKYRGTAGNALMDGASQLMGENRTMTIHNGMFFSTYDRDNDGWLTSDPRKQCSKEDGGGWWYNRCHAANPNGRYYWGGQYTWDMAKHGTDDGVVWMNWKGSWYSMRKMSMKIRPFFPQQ
T1 chain 3: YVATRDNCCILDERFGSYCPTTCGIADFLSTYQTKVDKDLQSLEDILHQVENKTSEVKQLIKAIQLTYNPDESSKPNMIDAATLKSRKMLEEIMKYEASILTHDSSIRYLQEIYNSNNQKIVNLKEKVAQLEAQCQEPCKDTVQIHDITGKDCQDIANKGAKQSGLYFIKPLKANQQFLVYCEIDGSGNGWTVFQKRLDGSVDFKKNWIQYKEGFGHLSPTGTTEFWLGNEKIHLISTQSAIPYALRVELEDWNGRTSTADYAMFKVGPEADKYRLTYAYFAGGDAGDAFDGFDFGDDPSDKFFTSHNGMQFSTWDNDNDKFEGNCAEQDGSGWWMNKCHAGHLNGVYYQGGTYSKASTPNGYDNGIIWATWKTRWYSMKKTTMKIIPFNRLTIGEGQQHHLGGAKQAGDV

B1: recombinant zinc-dependent metalloprotease (fibrinolytic protease from metagenomic clone pES63H9) (protein)
chain: MEPEPIKTCTVLENPGYQPIHAPTDVSPQPVLAAMEAVPVPTPPPTVDAVMLFRKKWRDGKILRVHFMDGDPDVHRKVEEVAHTWSRHANVRFKFVDDPAADIRISFTQPGSWSYLGTDALRIARSQSTMNFGWLTPRSPDSEYNRVVIHEFGHALGLVHEHQNPDNGIPWNKPAVYEYYSGPPNNWSKEQVDTNLFQQYSEDQVRFTGFDRESIMLYPIPNEFTVGDFEVGWNRDLSADDKEFIGRMYPKPANELIVDDPPRASEISRYGEIDTYTFLVTQKGSYRIETDGRTDLVMLLYGPEDDTKLIAADDDSGRRLNPRITEELDWGKYTVRLQHFSQRQTGKYAVGVYRDDAAE
hydrolysis of the fibrin α-chain, SDS-PAGE time course at 37° C.: the purified enzyme completely hydrolyzed the α-chain and the γ-γ-chain at 37 °C after 1 h
hydrolysis of the fibrin β-chain, SDS-PAGE time course at 37° C.: The enzyme also partially hydrolyzed the β-chain after 30 min; however, it was not completely hydrolyzed after 2 h and even after 24 h (data not shown)
hydrolysis of the fibrin γ-γ-chain, SDS-PAGE time course at 37° C.: the purified enzyme completely hydrolyzed the α-chain and the γ-γ-chain at 37 °C after 1 h
